Reference: US20240165282A1, “CONFORMATIONAL CONSTRAINED SOMATOSTATIN RECEPTOR 3 PEPTIDE LIGANDS AND THEIR CONJUGATES AND USES THEREOF” (STARGET PHARMA LTD., priority 2021, published 2024)
Several values for one entry are separate records, joined by “and”; a condition that tells them apart may be missing. Equal values may be shown once. *1 amine or outer side, *2 acyl side, *3 side chain or, on linkers, in order; H or OH if unused. Where a SMILES comes first, the peptide text is derived from it. Bridges are numbered along the chain shown (N, C = ends). [ ]: non-standard residue; d: D form. The star is where a group is joined. DOTA = O=C(O)CN1CCN(CC(=O)O)CCN(CC(=O)*)CCN(CC(=O)O)CC1; N(2-mercaptoethyl)Gly = O=C(CN(CCS[*:3])[*:1])[*:2]

How the values were obtained:
[1] = system: insulin release; assay: Glucose induced insulin release in rats; assay type: in vivo, Wistar rats; conditions: S.C. 100-1000 microgram/kg, glucose stimulation
Protocol: In vivo determination of the pharmacodynamic properties of SSTR3 analogs was carried out in rats, according to known procedures (Afargan M. et al., 2001, Pless J. et al 1986).
Adult male Wistar rats weighing 200-220 g, were maintained on a constant light-dark cycle (light from 8:00 to 20:00 h), temperature (21±3° C.), and relative humidity (55±10%). Laboratory chow and tap water were available ad libitum. All animals in the study were fasted overnight, animals were placed in cages with metal mesh to prevent coprophagia with free access to water. On the day of the experiment, rats were anesthetized with Nembutal (IP, 60 mg/kg). Ten minutes after anesthesia, drugs were administrated S.C. at 100-1000 microgram/kg dose. At 10 minutes after drugs administration the stimulation of GH and glucagon release were carried out by i.v. bolus administration of 0.5 g/kg L-arginine, stimulation of insulin release was carried out in separate animal groups that received i.v. bolus of 0.5 g/kg of glucose. Terminal blood samples in EDTA were collected at 5 minutes after stimulation. Blood samples were and centrifuged immediately. Plasma was separated and kept frozen at −20° C. until assayed.
Rat growth hormone (rGH), glucagon and insulin levels were determined by commercial ELISA kits using the Millipore ELISA kits (Billerica, MA, USA). The ELISA kit for rat plasma GH, Millipore, Cat. No. EZRMGH-45K was performed according to the validated detection method of colorimetric sandwich ELISA protocol (Supriya S. et al., 2013). The ELISA kit for rat plasma insulin, Millipore Cat. No. MMEZRMI13K (Merck) was performed according to the validated detection method of fluorescent colorimetric protocol (Xu, P.Z. et al., 2012). The ELISA kit for rat plasma glucagon, Millipore, Cat. No. EZGLU-35 was performed according to the validated detection method of chemiluminescent sandwich ELISA protocol (Soyeon Y. et al., 2021).
Data analysis of rat plasma GH, glucagon and insulin levels was evaluated by the averaged plasma hormones levels of each group. […] Results are expressed as the mean±SEM.

[2] = system: SSTR3-tGFP-U2OS cells; assay: Cellular internalization of 177Lu radiolabeled compounds; assay type: cell-based, human; conditions: 4 h
Protocol: In order to evaluate the cellular internalization of the ^177Lu radiolabeled SEQ ID NO: 6 in comparison to SEQ ID NO: 19 in SSTR3 transfected human cancer cell line to predict the tumor uptake of the radiolabeled compounds, the following example was performed.
Comparative SSTR3 receptor mediated internalization, was determined by incubation of the cultivate cancer cells with the ^177Lu radiolabeled compounds and determination of cellular uptake following washes of the cell culture. To evaluate the internalization as a receptor mediated process, the same experiments were performed in the presence of high concentration of cold SSTR3 ligands.
U2OS cells grow as a monolayer at +37° C. in a humidified atmosphere (5% CO2, 95% air). U2OS cancer cells are adherent to plastic flasks. For experimental use, these cancer cells are detached from the culture flask by a 5-minute treatment with trypsin-versene, in Hanks' medium without calcium or magnesium and neutralized by addition of complete culture medium.
The assay was performed as follows: Transfected human osteosarcoma cells SSTR3-tGFP-U2OS were plated in 6 well plate, 24 hours before the assay to have 80-90% confluency at the day of the assay. 30 minutes before the assay, medium was removed, and cells were washed with tempered Dulbecco's Phosphate Buffered Saline (DPBS, Sigma) and fresh medium (250 μL) is added. For total cellular uptake, 20 nM of the radioligand SEQ ID NO: 6 or SEQ ID NO: 19 were diluted in cell medium (250 μL) added to each well, in triplicate (final radioligand concentration: 10 nM). For non-specific binding, 20 μM (1000 in excess) of cold SEQ ID NO: 4 or cold SEQ ID NO: 6 or SEQ ID NO: 1 and 20 nM of ^177Lu-DOTA-PTR-58 radioligand solution in cell medium (250 μL) were added to each well, in triplicate (final cold peptide concentration: 10 μM; final radioligand concentration: 10 nM). The plates were incubated for 4 hours at +37° C. (air containing 5% CO2, humidified atmosphere). At the end of incubation, the plates were placed on ice to stop any internalization process. The medium, containing the free radioligand fraction, was collected and the cells were washed twice (2×750 μL) with ice-cold DPBS. The medium and the PBS washes were collected in the same vial from each well (final volume […]). The radioactivity of the cell pellets was counted by gamma counter and represents the cellular uptake as percentage of the administrated radioactivity. The radioactivity readouts of the wash-media were used for mass balance.

[3] = system: Xenograft of SSTR3 transfected HEK-293 cells; assay: in vivo; conditions: rat
Protocol: (§1) In this example, imaging performance, biodistribution and tumor uptake of SSTR3 selective radioligands in rodents bearing xenografts of transfected SSTR3 cells was determined using the following method: Animal handling was conducted in accordance with the European Council Directive 2010/63/UE. All experimental procedures were approved by the Institutional Ethical Committee and local authorities. For biodistribution studies, female nude nu/nu Balb/c mice or nude nu/nu rats (Charles River) were used. Dynamic PET-CT imaging experiments were performed up to 240 minutes in mice and up to 270 minutes in rats, under isoflurane anesthesia following the intravenous injection of the radiolabeled tracers. All experiments were performed during the light phase of the light—dark cycle. Biodistribution was determined by quantitative analysis of the PET-CT scan and calculated as % percentage of […] of the total injected dose (%ID/g) or by the value of SUV which is the ratio of the image-derived radioactivity concentration Cimg and the whole-body concentration of the injected radioactivity Cinj.

[4] = in vivo; conditions: iv, total radioactivity
Protocol: as §1

[5] = system: Desmoplastic Small Round Cell Tumor with SSTR3 expression; assay type: in vivo, human
Protocol: In this example, the safety, biodistribution, imaging performance and tumor uptake in patient with sarcoma type DSRCT tumor positive SSTR3 expression was evaluated. Following radiolabeling of the title compound, the eluted solution of the radiolabel tracer was filtered for sterility and injected intravenously in isotonic solution. PET-CT scan was performed at 30- and 120-minutes post injection of the radiolabeled tracer at approximately 600 Mbq. Body temperature, heart rate, and blood pressure were monitored before during and after the PET-CT scan for safety evaluation. The patient was a person, diagnosed for DSRCT 8 years prior. Over the last 8 years, before the current example, the patient was treated with External beam radiation therapy (EBRT), chemotherapy (Irinotecan/temozolomide, melphalan/treosuflan, gemcitabine/docetaxel, pazopanib, topotecan/cyclophosphamide, cabozantinib, densumab), and laminectomy (to resect spine—tumoral foci). A biopsy analysis was performed 3 months before the PET-CT and indicated high mRNA expression of SSTR3.

[6] = target: SSTR5 (Homo sapiens, UniProt P35346); assay: Radioligand binding, displacement of 125I-Tyr11-SRIF-14; parameters: host or cells: Chem-1 (Rat ChemiSCREEN) cells, membrane preparation; conditions: hSSTR-5
SSTR5, sequence (P35346 whole entry): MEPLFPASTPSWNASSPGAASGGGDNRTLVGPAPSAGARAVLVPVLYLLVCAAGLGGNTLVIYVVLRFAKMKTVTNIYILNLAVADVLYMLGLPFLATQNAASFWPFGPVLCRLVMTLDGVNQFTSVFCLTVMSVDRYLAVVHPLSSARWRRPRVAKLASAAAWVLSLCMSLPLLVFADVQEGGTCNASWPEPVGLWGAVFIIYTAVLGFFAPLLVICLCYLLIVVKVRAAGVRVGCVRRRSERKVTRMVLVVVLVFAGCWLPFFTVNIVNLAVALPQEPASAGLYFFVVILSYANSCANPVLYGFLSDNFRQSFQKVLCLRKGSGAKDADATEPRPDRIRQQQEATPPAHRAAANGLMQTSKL
Text: (§2) The binding to human cloned receptors SSTR-1, or SSTR-2 or SSTR-3 evaluated in stable and selective transfected CHO (Chinese Hamster Ovary) cells and binding to STSR-4 and SSTR-5 in stable and selective transfected Chem-1 (Rat ChemiSCREEN) cells. […] The binding reactions were filtered, the filters were washed, and the bound radioactivity was counted using a gamma counter.
(§3) The following table depicts the conditions of binding assay to each of the somatostatin receptors used for the evaluations of binding affinities of the tested peptides. All assays were performed by quantitation method of radioligand binding under 25° C. The vehicle was 1% DMSO, the incubation buffer was 25 mM HEPES, pH 7.4, 5 mM MgCl2, 1 mM CaCl2, 0.1% BSA. […] The significance criteria were >50% of max inhibition. […] This specific binding data used for calculation of Bmax values which is the concentration of each of the expressed cloned receptor in its transfected cell system.
(§4) The Results of IC50 values were determined by a non-linear, least squares regression analysis using MathIQ™ (ID Business Solutions Ltd., UK). […] The Hill coefficient (nH), defining the slope of the competitive binding curve, was calculated using MathIQ™.

[7] = target: SSTR1 (Homo sapiens, UniProt P30872); assay: as above; parameters: host or cells: CHO (Chinese Hamster Ovary) cells, membrane preparation; conditions: hSSTR-1
SSTR1, sequence (P30872 whole entry): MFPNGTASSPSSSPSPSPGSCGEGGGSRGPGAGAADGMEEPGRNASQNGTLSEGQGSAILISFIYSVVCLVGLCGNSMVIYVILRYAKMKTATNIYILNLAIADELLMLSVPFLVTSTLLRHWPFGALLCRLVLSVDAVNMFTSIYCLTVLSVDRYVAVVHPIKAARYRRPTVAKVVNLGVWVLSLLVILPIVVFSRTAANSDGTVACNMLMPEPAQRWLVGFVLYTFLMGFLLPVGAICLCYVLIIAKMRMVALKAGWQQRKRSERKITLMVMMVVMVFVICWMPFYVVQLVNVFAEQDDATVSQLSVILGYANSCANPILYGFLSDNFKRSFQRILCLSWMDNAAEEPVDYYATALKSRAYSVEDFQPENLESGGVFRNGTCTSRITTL
Text: as §2, §3, §4

[8] = target: SSTR3 (Homo sapiens, UniProt P32745); assay: as above; parameters: host or cells: CHO (Chinese Hamster Ovary) cells, membrane preparation; conditions: hSSTR-3
SSTR3, sequence (P32745 whole entry): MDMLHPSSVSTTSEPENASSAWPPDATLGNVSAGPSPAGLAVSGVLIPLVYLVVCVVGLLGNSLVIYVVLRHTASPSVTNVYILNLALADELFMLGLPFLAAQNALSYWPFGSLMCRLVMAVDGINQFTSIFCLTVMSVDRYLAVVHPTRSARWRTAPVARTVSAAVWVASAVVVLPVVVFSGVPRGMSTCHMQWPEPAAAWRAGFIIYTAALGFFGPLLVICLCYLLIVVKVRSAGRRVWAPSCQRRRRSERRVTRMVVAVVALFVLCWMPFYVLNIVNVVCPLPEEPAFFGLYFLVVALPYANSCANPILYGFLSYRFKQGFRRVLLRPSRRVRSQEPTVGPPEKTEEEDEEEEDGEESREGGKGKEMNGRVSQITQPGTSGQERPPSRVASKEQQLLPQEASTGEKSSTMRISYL
Text: as §2, §3, §4

[9] = target: SSTR2 (Homo sapiens, UniProt P30874); assay: as above; parameters: host or cells: CHO (Chinese Hamster Ovary) cells, membrane preparation; conditions: hSSTR-2
SSTR2, sequence (P30874 whole entry): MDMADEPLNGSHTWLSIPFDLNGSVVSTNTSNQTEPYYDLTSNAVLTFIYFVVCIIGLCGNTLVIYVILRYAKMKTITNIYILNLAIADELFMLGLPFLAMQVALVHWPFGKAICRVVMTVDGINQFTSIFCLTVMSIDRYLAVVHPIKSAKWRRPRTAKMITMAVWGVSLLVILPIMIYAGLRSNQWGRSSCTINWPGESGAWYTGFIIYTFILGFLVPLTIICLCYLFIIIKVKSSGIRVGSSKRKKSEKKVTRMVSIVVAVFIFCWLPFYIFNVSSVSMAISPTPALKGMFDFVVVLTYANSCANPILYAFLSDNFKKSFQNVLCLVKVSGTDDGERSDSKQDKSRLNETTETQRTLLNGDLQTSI
Text: as §2, §3, §4

[10] = target: T1, hSSTR-4 (Homo sapiens, UniProt P31391); assay: as above; conditions: hSSTR-4
T1 construct: host or cells: Chem-1 (Rat ChemiSCREEN) cells, membrane preparation
T1 sequence (P31391 whole entry): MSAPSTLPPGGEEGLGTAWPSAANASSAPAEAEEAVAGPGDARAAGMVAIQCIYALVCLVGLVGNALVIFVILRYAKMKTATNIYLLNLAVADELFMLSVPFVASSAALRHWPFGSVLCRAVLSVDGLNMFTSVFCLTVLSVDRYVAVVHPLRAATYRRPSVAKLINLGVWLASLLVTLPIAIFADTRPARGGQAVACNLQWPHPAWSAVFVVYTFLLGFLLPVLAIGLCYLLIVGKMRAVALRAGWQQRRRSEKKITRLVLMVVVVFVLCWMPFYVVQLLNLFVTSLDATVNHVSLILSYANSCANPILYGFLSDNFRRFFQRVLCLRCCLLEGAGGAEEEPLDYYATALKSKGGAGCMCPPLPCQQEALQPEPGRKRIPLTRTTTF
Text: as §2, §3, §4

[11] = female, nude nu/nu Balb/c, mouse, Kidneys % ID/cm^3
[12] = female, nude nu/nu Balb/c, mouse, Tumor % ID/cm^3

With `C[C@@H](O)[C@@H]1NC(=O)[C@H](CCCCN)NC(=O)[C@@H](Cc2c[nH]c3ccccc23)NC(=O)[C@H](Cc2ccccc2)NC(=O)[C@@H](NC(=O)[C@H](N)Cc2ccccc2)CSSC[C@@H](C(=O)N[C@H](CO)[C@@H](C)O)NC1=O` [octreotide, reference compound] the “effect on insulin release” value [1] was “exhibits anti-secretagogue effect of pancreatic release of insulin”.
With “^177Lu -SEQ ID NO: 6 ({DOTA}-[dF]RCF[dW]KTF[N(2-mercaptoethyl)Gly]-NH2; disulfide 3-9; also: 177Lu complex of DOTA)” the “% Total cellular uptake” value ([2]; 177Lu radiolabeled, 10 nM, no blocking) was 15.5 ± 0.28% and 22.1 ± 0.5%, the “% Total cellular uptake” value ([2]; 177Lu radiolabeled, 10 nM, no blocking, listed as 177Lu radiolabeled SEQ ID NO. 6) was 22% and the “% Total cellular uptake” value ([2]; + SEQ ID NO: 4 (cold 69/71Ga for blocking)) was 0.9 ± 0.02%. For the same molecule, the “% Total cellular uptake” value ([2]; + SEQ ID NO: 6 (cold 175Lu for blocking)) was 0.6 ± 0.02%.
In the case of `C[C@@H](O)[C@@H]1NC(=O)[C@H](CCCCN)NC(=O)[C@@H](Cc2c[nH]c3ccccc23)NC(=O)[C@H](Cc2ccccc2)NC(=O)[C@@H](NC(=O)[C@H](CCCNC(=N)N)NC(=O)[C@@H](Cc2ccccc2)NC(=O)CN2CCN(CC(=O)O)CCN(CC(=O)O)CCN(CC(=O)O)CC2)CSSCCN(CC(N)=O)C(=O)[C@H](Cc2ccccc2)NC1=O` [^68Ga -SEQ ID NO: 4, metal not drawn] ({DOTA}-[dF]RCF[dW]KTF[N(2-mercaptoethyl)Gly]-NH2; disulfide 3-9), the “tumor uptake above the kidneys (tumor/kidneys)” value [3] is reported as “approximately 50%”, the “Kidneys SUV” value ([3]; iv) is reported as 7.6 and the “Tumor SUV” value ([3]; iv) is reported as 11.0. It also gave a tissue uptake per volume at 2.5 h [4, 11] of 6 %ID/mL, a tissue uptake per volume at 4 h [4, 11] of 6.6 %ID/mL and a tissue uptake per volume at 2.5 h [4, 12] of 9.6 %ID/mL. For the same molecule, the tissue uptake per volume at 4 h [4, 12] was 12.3 %ID/mL, the tissue uptake per volume at 2.5 h ([4]; nude nu/nu, rat, Kidneys % ID/cm^3) was 3.2 %ID/mL and the tissue uptake per volume at 2.5 h ([4]; nude nu/nu, rat, Tumor % ID/cm^3) was 4.7 %ID/mL. The safety evaluations ([5]; human, in vivo) was “no abnormal toxicity signs”, the “uptake in off-target organs” value ([5]; human, in vivo) was “no uptake in off-target organs” and the “elimination of the tracer” value ([5]; human, in vivo, iv) was “rapid elimination of the tracer was observed from the blood to the kidneys”. For the same molecule, the “tumor uptake (radioactive foci)” value ([5]; patient with DSRCT, FIG. 9) was “several radioactive foci were detected in the lung, neck and pelvic regions”.
With “DOTA-Ala^1-D-Phe^2-Arg^3-Cys^4-Phe^5-D-Trp^6-Lys^7-Thr^8-Phe^9-NTEG^10-NH2 (cyclo 4-10) ({DOTA}-A[dF]RCF[dW]KTF[N(2-mercaptoethyl)Gly]-NH2; disulfide 4-10; SMILES C[C@H](NC(=O)CN1CCN(CC(=O)O)CCN(CC(=O)O)CCN(CC(=O)O)CC1)C(=O)N[C@H](Cc1ccccc1)C(=O)N[C@@H](CCCNC(=N)N)C(=O)N[C@H]1CSSCCN(CC(N)=O)C(=O)[C@H](Cc2ccccc2)NC(=O)[C@H]([C@@H](C)O)NC(=O)[C@H](CCCCN)NC(=O)[C@@H](Cc2c[nH]c3ccccc23)NC(=O)[C@H](Cc2ccccc2)NC1=O) [SEQ ID NO: 12]” the “% displacement of [^125I] Tyr^11-SRIF-14” value ([6]; at 1 nM (in brackets)) was 0%, the “% displacement of [^125I] Tyr^11-SRIF-14” value ([6]; at 10 nM) was 13% and the “% displacement of [^125I] Tyr^11-SRIF-14” value ([7]; at 1 nM (in brackets)) was 0%. The “% displacement of [^125I] Tyr^11-SRIF-14” value ([7]; at 10 nM) was 10%, the “% displacement of [^125I] Tyr^11-SRIF-14” value ([8]; at 1 nM (in brackets)) was 64% and the “% displacement of [^125I] Tyr^11-SRIF-14” value ([8]; at 10 nM) was 93%. For the same molecule, the “% displacement of [^125I] Tyr^11-SRIF-14” value ([9]; at 1 nM (in brackets)) was 0(0) %, the “% displacement of [^125I] Tyr^11-SRIF-14” value ([9]; at 10 nM) was 0(0) % and the “% displacement of [^125I] Tyr^11-SRIF-14” value ([10]; at 1 nM (in brackets)) was 0(0) %. The “% displacement of [^125I] Tyr^11-SRIF-14” value ([10]; at 10 nM) was 0(0) %.
